The binders below were run against T1, SARS-CoV-2 receptor-binding domain (RBD), S protein residues 319-539 (SARS-CoV-2, UniProt P0DTC2 319-539) (assay: ELISA on coated RBD).
T1 construct: also called WT RBD; SARS-COV-2 RBD

| Binder | EC50 [ng/mL] |
| --- | --- |
| C891 (antibody, V domains shown) VH: EVQLVESGGGLVKPGGSLRLSCAVSGFTFSNVWMSWVRQAPGKGLEWVGRIKSKTDGGTTDYAAPVKGRFTISRDDSKNTLYLQMNSLKTEDTAVYYCTSQLWLRGPGDYWGQGTLVTVSS VL: NFMLTQPHSVSESPGKTVTISCTGSSGSIASNYVQWYQQRPGSAPTTVIYEDNQRPSGVPDRFSGSIDSSSNSASLTISGLKTEDEADYYCQSYDSSLNWVFGGGTKLTVL | 1.44 |
| C892 (antibody, V domains shown) VH: EVQLVESGGGLVKPGGSLKVSCTASGFTFTDAWMSWVRQAPGKGLEWVGRIKSRAYGGTTDYGAPVQGRFTISRDDSINTLYLQMNSLTAEDTAVYYCTSQLWLRGPGDYWGQGTLVTVSS VL: NFMLTQPHSVSESPGKTVTISCTGSSGSIASNYVHWYQQRPGGAPTTVIYEDNQRPSGVPDRFSGSIDISSNSASLTISGLKTEDEGDYYCQSYDSGVNWVFGGGTKLTVL | 2.9 |
| C889 (antibody, V domains shown) VH: EVQLVESGGGLVQPGGSLRLSCAVSGFTVSSNYMTWVRQAPGKGLEWVSLIYSGTSAFYADSVKGRFTISRDNSKNTLYLQMSSLRVNDTAIYYCARDLRKDDGYSYGAFDYWGQGTLVTVSS VL: QSALTQPASVSGSPGQSITISCSGTSSDVGAHNYVSWYQQYPGKAPKLMIFDVTDRPSGVSNRFSGSKSGNTASLTISGLQAEDEADYYCTSYTTNRSWVFGGGTKVTVL | 4.25 |
| C890 (antibody, V domains shown) VH: QVQLVQSGAEVKKPGSSVKASCKASGGTFSTYTISWVRQAPGHGLEWMGRIIPIFGTTKYAQKFQGRVTITADESTTTAYLELSSLRSEDTAVYYCTINTQWDLVPRWGQGTLVTVSS VL: not shown | 2.2 |
| C887 (antibody, V domains shown) VH: EVQLVESGGDLVQPGGSLRLSCAASGFTFTTYSMSWVRQAPGKGLEWISYINSGSANIHYADSVKGRFTVSRDNAKNSLYLQMNSLRDEDTAVYYCARGDCLSSSCYSLDYWGQGALVTVSS VL: DIQMTQSPSSLSASVGDRVTITCRASQSITSYLSWYLQKPGEAPKLLIYAASILQSGVPSRFGGNGSGTDFTLTISSLQPEDFATFYCQQTYRSPLTFGGGTKVEIK | 2.53 |
| C844 (antibody, V domains shown) VH: EVQLVESGGGLVKPGGSLRLSCVATGFSFSDAWMNWVRQAPGKGLEWVGRIRSEIADGTTDYAAPVKGRFTISRDDARNTLYLQMNSLEIEDTAVYYCTTGVVVVVSSSPDDAFDVWGQGTMVTVSS VL: DIQMTQSPSSLSASVGDRVTITCRASQSIGHYLNWYQQKPGKAPKLLIYAASSLQSGVPSRFSGSGSGAGFTLTVNGLQPEDLATYYCQQYYTTPPTFGQGTKVEIK | 1.28 |
| C881 (antibody, V domains shown) VH: EVQLVESGGGLIQPGGSLRLSCAVSGVAVSTNYMSWVRQAPGQGLEWVSTIYSGDTTYYSDSVKGRFTISRDNSKNTFYLQMNSLRVPDTAVYYCARLGGVFNGFNGSFDYWGQGTLVTVS VL: QSALTQPASVSGSPGQSITISCIGTSSDFENYNLVSWYQQHPGKAPKVMIYEDTKRPSGVSNRFSGSKSANTASLTISGLQAEDEAEYYCCSYAGASTWVFGGGTRVTVV | 1.44 |
| C845 (antibody, V domains shown) VH: QVQLQESGPGLVKPSQTLSLTCTVSGASISSGEYYWSWVRQPPGKGLEWVGYIYYSGSTYYNPSLKSRVTISVDTSKNHFSLKLKSLTAADTAVYFCATGGLSAFGELFPHDKWGQGTLVTVSS VL: EIVLTQSPATLSLSPGERATLSCRASQSVGSDLAWYQQKPGQAPRLLIYDTSNRATGIPARFSGSGSGTDFTLTISSLDPADFAVYYCQQRTNWLFSFGPGTKVDIK | 1.39 |
| C901 (antibody, V domains shown) VH: QVQLVESGGGVVQPGRSLRIACGASGFTFSTYDMHWVRQAPVKGLEWVAVISRDGSGKFYADSVKGRFTISRDNSKKTLYLQMDSLRPEDTAMYYCARDFESRTWDPPKYYYALDVWGQGTTVTVSS VL: DIQMTQSPSSLSASVGDRVTITCRASQSISTYLNWYQQKPGKAPSLLIYAASSLYSGVPSRFSGSGSGTDFSLTISSLQPEDFATYYCQQTYTTPTWTFGQGTKVEIK | 2.16 |
| C843 (antibody, V domains shown) VH: QVQLVESGGGVVQPGRSLRLSCAASGFTFSRYAMHWVRQAPGKGLEWVAVISYDGSNKYYATSLKGRCTISRDNSKNTLYLQMNSLRAEDTAVYFCAKQIGEYCSGGNCYQGSLDYWGQGTLVTVSS VL: DIQMTQSPSSLSASVGDRVTITCQASQDISNYLNWYQQKPGKAPKLLIYDASDLETGVPSTFSGSGSGTDFTLTISSLQPEDFATYYCQQYDIVPFTFGPGTKVDIK | 1.34 |

These binders were tested against T2, SARS-CoV-2 receptor-binding domain (WT RBD; S protein residues 319-539) (SARS-CoV-2, UniProt P0DTC2 319-539) (assay: BLI (Octet Red), IgG on protein A biosensor, WT RBD in solution, 1:1 fit).
T2 construct: also called SARS-COV-2 RBD

| Binder | Kd [nM] |
| --- | --- |
| C908 (antibody, V domains shown) VH: EVQLVQSGAEVKKPGESLKISCKASGYSFTIYWIGWVRQMPGKGLEWMGIIYPGESETRYSPSFQGQVTISADKSISTAYLQWRSLKASDTAMYYCARGGPPGGVKLELTDYWGQGTLVTVSS VL: not shown | 0.0026 |
| C953 (antibody, V domains shown) VH: QVQLVQSGAEVKKPGSSVKVSCKASGGTFSSYAISWVRQAPGQGLEWMGRIIPILGIANYAQKFQGRVTITADKSTSTAYMELSSLRSEDTAVYYCARDSEYSSSWYSRGYYGMDVWGQGTTVTVSS VL: not shown | 164 |
| C960 (antibody, V domains shown) VH: QVQLVESGGGVVQPGRSLTLSCTASGFTFNRFAMFWVRQAPGKGLEWVAVISFDGSYEHYAESVKGRFAIFRDNPKNTLYLQMNSLRAEDTAVYYCAKSPINYCANGVCYPDSWGQGTLVTVSS VL: NFMLTQPHSVSESPGKTVTISCTGSSGSIANNYVQWYQQRPGSAPTTVIFEDTQRPSGVPDRFSGSIDSSSNSASLNISGLKPEDEADYYCQSFDVNSRWVFGGGTKLTVL | 6.67 |
| C951 (antibody, V domains shown) VH: QVQLQESGPRLVKPSGTLSLTCAVSGGSISTTNWWSWVRQPPGKGLEWIGEIHHSGNTNYNPSLKSRVTISVDRSKNQFSLKLSSVTAADTAVYFCARDGGRPGDPFDIWGQGTMVTVSS VL: QSALTQPASVSGSPGQSITISCTGTSSDVGGYNYVSWYQQHPGKAPNLMIYDVSDRPSGVSNRFSGSKSGNTASLTISGLQAEDEADYYCNSFTSNSTRVFGTGTKVTV | 3.03 |
| C954 (antibody, V domains shown) VH: QVQLVQSGAEVKKPGSSVKVSCKASGDTFTNYAFSWMRQAPGQGLEWMGRIIPILGIVKYSQKFQDRVRISADKSTSTAYMDLSSLRSEDTAMYYCARDSEFSTSWFSRGYHGMDVWGQGTTVTVSS VL: DIVMTQSPLSLPVTPGEPASISCRSSQSLLHGDGYNYLDWYLQKPGQSPHLLIYLGSNRTSGVSDRFSGSGSGTDFTLKISRVEAEDVGVYYCMQALQTPPTFGGGTKVEIK | 7.14 |
| C1008 (antibody, V domains shown) VH: EVQLVESGGGLIQPGGSLRLSCAASGFTVSSNYMSWVRQAPGKGLEWVSVIYSGGSTYYADSVKGRFTISRDNSKNTLYLQMNSLRAEDTAVYYCARVVGYDFWSGYDGGYFDYWGQGTLVTVSS VL: QSALTQPASVSGSPGQSITISCTGTSSDVGSYNLVSWYQQHPGKAPKLMIYEVSKRPSGVSNRFSGSKSGNTASLTISGLQAEDEADYYCCSYAGSSTWVFGGGTKLTVL | 500 |
| C1009 (antibody, V domains shown) VH: EVQLVESGGGLLQPGGSLRLSCAASGFSVSSNYMTWVRQAPGKGLEWVAAIYSGDSTYYVDSVKGRFIISRDNSKNTVYLHLSSLRAEDTAVYYCARLVGYDFRSGSDGGYFDYWGHGTLVTVSS VL: QSALTQPASVSGSPGQSITISCTGTSSDIGNYNLVSWYQQHPGKAPKLMIYDVSKRPSGVSNRFSGSKSGNTASLTISGLQAEDETDYYCCSYAGSSTWVFGGGTKLTVL | 2.13 |

Source: patent US20240218057A1 (ROCKEFELLER UNIVERSITY, published 2024)
